Measured values: IntAct's records for PubMed 22575959

Biological target: rspo1_human RSPO1 (UniProt Q2MKA7)
Sequence (Q2MKA7 whole entry): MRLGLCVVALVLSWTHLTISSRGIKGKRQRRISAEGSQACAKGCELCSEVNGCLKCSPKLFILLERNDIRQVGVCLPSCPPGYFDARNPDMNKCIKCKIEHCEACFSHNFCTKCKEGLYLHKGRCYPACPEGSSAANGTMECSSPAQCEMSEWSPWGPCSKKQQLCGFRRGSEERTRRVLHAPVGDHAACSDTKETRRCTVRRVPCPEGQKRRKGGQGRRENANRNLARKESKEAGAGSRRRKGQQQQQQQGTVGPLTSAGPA

Substance: E3 ubiquitin-protein ligase ZNRF3 (Homo sapiens), Q9ULT6 P103A
- effect of a mutation on the interaction: disrupting interaction strength
